Biological target: all of the coactivators tested
Experiment: cell-based or functional assay

B1: VP16 transactivation domain linked to the ligand binding domain of SXR (VP-L-SXR), P06492 413-490; O75469 107-434 (protein)
chain: APPTDVSLGDELHLDGEDVAMAHADALDDFDLDMLGDGDSPGPGFTPHDSAPYGALDMADFEFEQMFTDALGIDEYGGMKKEMIMSDEAVEERRALIKRKKSERTGTQPLGVQGLTEEQRMMIRELMDAQMKTFDTTFSHFKNFRLPGVLSSGCELPESLQAPSREEAAKWSQVRKDLCSLKVSLQLRGEDGSVWNYKPPADSGGKEIFSLLPHMADMSTYMFKGIISFAKVISYFRDLPIEDQISLLKGAAFELCQLRFNTVFNAETGTWECGRLSYCLEDTAGGFQQLLLEPMLKFHYMLKKLQLHEEEYVLMQAISLFSPDRPGVLQHRVVDQLQEQFAITLKSYIECNRPQPAHRFLFLKIMAMLTELRSINAQHTQRLLRIQDIHPFATPLMQELFGITGS
Gal4 reporter activity in mammalian two-hybrid assay, 10 µM docetaxel against 10 µM paclitaxel (% less than with paclitaxel): 25 to 40

— patent US20050037404A1
